In patent US20030026800A1:

Experiments:
[1] = target: antigen of Daudi B lymphoblastoid cells to which the mAbs of the invention bind; assay: FACS double labelling, peripheral blood lymphocytes of healthy individuals
[2] = target: antigen of Daudi B lymphoblastoid cells to which the mAbs of the invention bind; assay: FACS double labelling, peripheral blood lymphocytes of prostate carcinoma patients
[3] = target: antigen of Daudi B lymphoblastoid cells to which the mAbs of the invention bind; assay: FACS double labelling, peripheral blood lymphocytes of colon carcinoma patients
[4] = target: antigen of Daudi B lymphoblastoid cells to which the mAbs of the invention bind; assay: FACS double labelling, peripheral blood lymphocytes of breast carcinoma patients

B1: mouse BAT antibody (antibody, V domains shown)
VH: QIQLVQSGPELKKPGETVKISCKASGYTFTNYGMNWVKQAPGKGLKWMGWINTDSGESTYAEEFKGRFAFSLETSANTAYLQINNLNNEDTATYFCVRVGYDALDYWGQGTSVTVSS
VL: QIVLTQSPAIMSASPGEKVTITCSARSSVSYMHWFQQKPGTSPKLWIYRTSNLASGVPARFSGSGSGTSYCLTISRMEAEDAATYYCQQRSSFPLTFGSGTKLEIK
percent of CD3+ BAT+ cells (of total CD3+ cells) [1]: 25%
percent of CD3+ BAT+ cells (of total CD3+ cells) [2]: 50%
percent of CD3+ BAT+ cells (of total CD3+ cells) [3]: 7%
percent of CD3+ BAT+ cells (of total CD3+ cells) [4]: 10%
